From the supplement of paper PMC7877785
± gives the uncertainty stated by the source.

Assay: self-splicing fitness, log relative to wild type (ln ratio); higher = more splicing; Tetrahymena group I intron in knt gene, E. coli kanamycin selection, DiMSum; sequences stand for … in CUCUCU…GGAGGGAAAAGUUAUCAGGCAUGCACCUGGUAGCUAGUCUUUAAACCAAUAGAUUGCAUCGGUUUAAAAGGCAAGACCGUCAAAUUGCGGGAAAGGGGUCAACAGCCGUUCAGUACCAAGUCUCAGGGGAAACUUUGAGAUGGCCUUGCAAAGGGUAUGGUAAUAAGCUGACGGACAUGGUCCUAACCACGCAGCCAAGUCCUAAGUCAACAGAUCUUCUGUUGAUAUGGAUGCAGUUCACAGACUAAAUGUCGGUCGGGGAAGAUGUAUUCUUCUCAUAAGAUAUAGUCGGACCUCUCCUUAAUGGGAGCUAGCGGAUGAAGUGAUGCAACACUGGAGCCGCUGGGAACUAAUUUGUAUGCGAAAGUAUAUUGAUUAGUUUUGGAGUACUCGUGGUCG
Outline: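 Six replicate transformations of E. coli BL21(DE3) with a pET-22b(+) library were grown overnight at 37°C or 30°C. The library randomised all eight P1ex-region intron nucleotides, the intron lying in the knt kanamycin-resistance gene, and plates were LB agar with or without 25 μg/mL kanamycin plus 100 μg/mL carbenicillin, 50 μM IPTG and 0.2% rhamnose. Pooled colonies were amplicon-sequenced on an Illumina HiSeq 2500, and fitness is the DiMSum error-weighted combination of wild-type-normalised replicate fold changes, kanamycin versus none.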

Sequence	self-splicing fitness (ln) (30 °C)	self-splicing fitness (ln) (37 °C)
CCGCAGCAAUAUUACGAGUC	-3.36 ± 0.26	-3.29 ± 0.28
ACCGAGCAAUAUUACGUGCU	-3.32 ± 0.25	-2.49 ± 0.27
CCUCAGCAAUAUUACGCCUG	-2.38 ± 0.081	-1.72 ± 0.11
GCGUAGCAAUAUUACGUGAU	-2.79 ± 0.24	-1.56 ± 0.19
AGUUAGCAAUAUUACGACUA	-0.154 ± 0.18	0.0802 ± 0.17
AUGAAGCAAUAUUACGGACC	-0.516 ± 0.22	0.108 ± 0.23
UUAUAGCAAUAUUACGGUCA	-0.871 ± 0.13	-0.305 ± 0.17
AAGCAGCAAUAUUACGUGCC	-1.23 ± 0.11	-1.47 ± 0.12
CGUAAGCAAUAUUACGGUUU	-3.8 ± 0.2	-2.71 ± 0.17
GAAGAGCAAUAUUACGCAUU	-4.28 ± 0.2	-2.2 ± 0.2
AGCCAGCAAUAUUACGGAUG	-1.85 ± 0.1	-0.824 ± 0.12
CCUAAGCAAUAUUACGGCGC	-3.12 ± 0.29	-3.22 ± 0.33
GUGUAGCAAUAUUACGAAGA	–	-1.38 ± 0.39
UCAAAGCAAUAUUACGACUG	-0.4 ± 0.086	-0.859 ± 0.11
UCUCAGCAAUAUUACGCAGU	-2.93 ± 0.16	-1.96 ± 0.19
UCAUAGCAAUAUUACGUCCA	-1.07 ± 0.16	-0.442 ± 0.17
GUGGAGCAAUAUUACGUUCA	-1.02 ± 0.11	-0.668 ± 0.11
AAGAAGCAAUAUUACGUUCA	-0.746 ± 0.077	0.133 ± 0.099
UCGCAGCAAUAUUACGAGAG	-4.55 ± 0.36	-2.39 ± 0.18
CGUAAGCAAUAUUACGUCCA	-2.61 ± 0.17	-1.25 ± 0.17
CUGCAGCAAUAUUACGGAUC	–	-2.38 ± 0.21
CCAAAGCAAUAUUACGUCCU	-4.59 ± 0.31	-2.33 ± 0.21
GUCAAGCAAUAUUACGCCGG	–	-0.94 ± 0.36
GGCCAGCAAUAUUACGCUCG	-2.5 ± 0.15	-0.863 ± 0.13

Sequence	self-splicing fitness (ln) (30 °C)	self-splicing fitness (ln) (37 °C)
GUCAAGCAAUAUUACGAGCG	-2.72 ± 0.16	-1.2 ± 0.18
CCGUAGCAAUAUUACGCUGA	-2.87 ± 0.31	-2.06 ± 0.28
UGAGAGCAAUAUUACGACGC	-1.61 ± 0.35	–
UUUAAGCAAUAUUACGUUUC	-3.96 ± 0.35	-3.19 ± 0.4
GUAUAGCAAUAUUACGGGCU	-2.86 ± 0.17	-1.38 ± 0.19
GAAGAGCAAUAUUACGGGUC	-1.86 ± 0.27	–
CCCCAGCAAUAUUACGUGAG	-1.84 ± 0.07	-1.33 ± 0.084
UAAGAGCAAUAUUACGUUAA	-3.21 ± 0.22	-2.3 ± 0.2
CGCCAGCAAUAUUACGCUUU	-2.9 ± 0.13	-1.13 ± 0.12
CCCCAGCAAUAUUACGGUUA	-3.5 ± 0.17	-2.61 ± 0.13
GUUUAGCAAUAUUACGUCGU	-0.72 ± 0.21	-0.885 ± 0.21
GUUAAGCAAUAUUACGCCUA	-0.752 ± 0.11	-0.139 ± 0.11
CUCCAGCAAUAUUACGUGAU	-2.1 ± 0.078	-1.59 ± 0.1
GUCUAGCAAUAUUACGCUCG	-0.688 ± 0.23	-0.634 ± 0.27
GUUUAGCAAUAUUACGUUAA	-1.87 ± 0.33	-1.68 ± 0.24
GUUAAGCAAUAUUACGCAGU	-1.74 ± 0.24	-2.55 ± 0.23
GCUUAGCAAUAUUACGGCAC	-2.62 ± 0.44	0.326 ± 0.28
UGCAAGCAAUAUUACGUACC	-2.18 ± 0.16	-1.02 ± 0.23
UCCAAGCAAUAUUACGCCAA	-2.68 ± 0.21	-0.487 ± 0.22
CAACAGCAAUAUUACGCUGU	-2.11 ± 0.2	-2.65 ± 0.26
AACAAGCAAUAUUACGAUGC	-2.67 ± 0.14	-0.922 ± 0.11
GCUCAGCAAUAUUACGGAGA	-0.638 ± 0.095	0.284 ± 0.14
UGCCAGCAAUAUUACGUUAG	-2.26 ± 0.12	-0.975 ± 0.13
UGAUAGCAAUAUUACGGGAG	-3.64 ± 0.29	-2.19 ± 0.21
